This is an account of results in paper PMC8219829.

For orientation: stoichiometry N means the number of molecules, sites or subunits per partner or assembly.

In this experiment the target is protective antigen PA63 heptameric pore (PA_(pore)) (Bacillus anthracis). In words: cryo-EM structure.

As for “protective antigen PA63 heptameric pore (PA_(pore)) (natural protein)”, the stoichiometry N is 7.
